Results reported in US20240368249A1 (INTERVET, published 2024).

Legend:
canine IL-4 = biological target: T1, canine IL-4 (canine, UniProt O77762 25-132, biotin-labeled in the OCTET assay); test: BLI (OCTET HTX), biotin-cIL-4 on SA biosensors
T1 construct: also called cIL-4; canine Interleukin-4
T1 sequence (looked up): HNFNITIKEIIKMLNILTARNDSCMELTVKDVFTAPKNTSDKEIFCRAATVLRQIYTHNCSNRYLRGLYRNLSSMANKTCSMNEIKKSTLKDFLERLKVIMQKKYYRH
Protocol: (§1) The binding constants for the cFc fusion proteins provided in Tables 3 and 4 below, were determined using OCTET® HTX. All kinetics measurements were performed by OCTET® HTX using SA® biosensors and DATA ACQUISITION® 12.0 software. 10 μg/mL of biotin-labeled antigen, either canine IL-4 (cIL-4) or canine IL-13 (cIL-13) were loaded onto the SA® biosensors for 120 seconds. Next, the biosensors were placed into 1×pH 7.0 TBS/Casein buffer for 60 seconds for the blocking phase. For the association phase, antigen loaded biosensors were placed into 2-fold serial dilutions from 1 μM down to 15.6 nM of the wild-type, the bispecific, or the FcRn-mutant receptor Fc-fusions that recognized the cIL-4 or cIL-13 antigen in 1×pH 7.0 TBS/Casein buffer for 30 seconds. The last well was buffer alone and that sensor was used for reference sensor subtraction. Finally, the biosensors were placed into 1×pH 7.0 TBS/Casein buffer for 120 seconds for the dissociation phase. The results were then analyzed using Data Analysis 12.0 software and the curves were fitted using a 1:1 binding model.

canine IL-13 = biological target: T2, canine IL-13 (canine, UniProt Q9N0W9 19-131, limits assumed, biotin-labeled in the OCTET assay); test: BLI (OCTET HTX), biotin-cIL-13 on SA biosensors
T2 construct: also called cIL-13; canine Interleukin-13
T2 sequence (looked up): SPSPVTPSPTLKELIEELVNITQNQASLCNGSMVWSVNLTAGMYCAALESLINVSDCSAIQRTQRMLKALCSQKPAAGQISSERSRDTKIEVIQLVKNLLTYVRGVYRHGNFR
Protocol: as §1

B1: cIL-4Rα-13Rα1_ZW1-cFc (Fc fusion)
chain 1: VKVLHEPSCFSDYISTSVCQWKMDHPTNCSAELRLSYQLDFMGSENHTCVPENREDSVCVCSMPIDDAVEADVYQLDLWAGQQLLWSGSFQPSKHVKPRTPGNLTVHPNISHTWLLMWTNPYPTENHLHSELTYMVNVSNDNDPEDFKVYNVTYMGPTLRLAASTLKSGASYSARVRAWAQTYNSTWSDWSPSTTWLNYYEPWEQHLPPKRENGRVPRPPDCPKCPAPEMLGGPSVFIFPPKPKDTLLIARTPEVTCVVVDLDPEDPEVQISWFVDGKQMQTAKTQPREEQFNGTYRVVSVLPIGHQDWLKGKQFTCKVNNKALPSPIERTISKARGQAHQPSVYVYPPSREELSKNTVSLTCLIKDFFPPDIDVEWQSNGQQEPESKYRTTPPQLDEDGSYALVSKLSVDKSRWQRGDTFICAVMHEALHNHYTQESLSHSPGK
chain 2: GGVAAPTETQPPVTNLSVSVENLCTVIWTWDPPEGASPNCTLRYFSHFDNKQDKKIAPETHRSKEVPLNERICLQVGSQCSTNESDNPSILVEKCTPPPEGDPESAVTELQCVWHNLSYMKCTWLPGRNTSPDTNYTLYYWHSSLGKILQCEDIYREGQHIGCSFALTNLKDSSFEQHSVQIVVKDNAGKIRPSFNIVPLTSHVKPDPPHIKRLFFQNGNLYVQWKNPQNFYSRCLSYQVEVNNSQTETNDIFYVEEAKCQNSEFEGNLEGTICFMVPGVLPDTLNTVRIRVRTNKLCYEDDKLWSNWSQAMSIGENTDPTPKRENGRVPRPPDCPKCPAPEMLGGPSVFIFPPKPKDTLLIARTPEVTCVVVDLDPEDPEVQISWFVDGKQMQTAKTQPREEQFNGTYRVVSVLPIGHQDWLKGKQFTCKVNNKALPSPIERTISKARGQAHQPSVYVLPPSREELSKNTVSLLCLIKDFFPPDIDVEWQSNGQQEPESKYLTWPPQLDEDGSYFLYSKLSVDKSRWQRGDTFICAVMHEALHNHYTQESLSHSPGK
notes: Bispecific heterodimer; also called cIL4Rα-IL13Rα1_ZW1-cFc; cIL-4Rα-IL-13Rα1_ZW1-cFc
Canine IL-4
  fold change of KD against the unmodified cIL-4Rα-cFc homodimer: ~10000 fold higher
Canine IL-13
  fold tighter binding against the unmodified IL-13Rα1-cFc: 8 fold tighter
